Test results published in PMC1839166, “Type III Effector Activation via Nucleotide Binding, Phosphorylation, and Host Target Interaction” (PLoS Pathogens, 2007).

Key:
[1] = target: T1, avirulence protein B (AvrB), wild type (Pseudomonas syringae pv. glycinea, UniProt P13835 1-321); assay: ITC; VP-ITC microcalorimeter; RIN4_(142–176) peptide (50 to 450 μM) titrated in 6-μl injections into 5 to 25 μM wild-type or variant AvrB, stirring at 255 rpm; wild-type AvrB 6 μM with full-length RIN4 120 μM; nonbinding confirmed at as much as 25 μM and 450 μM; settings: both partners purified
T1 construct: AvrB (avirulence protein B), type III effector of Pseudomonas syringae pv. glycinea; residues 26-53 and 56-321 are modelled in the AvrB/RIN4 structure; also called wild-type AvrB; source: E. coli BL21 Rosetta (pProEX-HTa), purified (nickel column, TEV digestion, Source Q, Sephacryl S200 if needed); not shown: His tag, N-terminal, cleaved

[2] = target: T2, AvrB^QRY/AAA (Pseudomonas syringae pv. glycinea, UniProt P13835 1-321, QRY/AAA (Q208, R209, and Y210 to alanine)); assay: as above; settings: both partners purified
T2 construct: AvrB (avirulence protein B), Pseudomonas syringae pv. glycinea; also called triple mutation of Q208, R209, and Y210 to alanine; source: E. coli BL21 Rosetta, purified (glutathione column, TEV digestion, Source Q); not shown: GST, N-terminal, cleaved
T2 sequence: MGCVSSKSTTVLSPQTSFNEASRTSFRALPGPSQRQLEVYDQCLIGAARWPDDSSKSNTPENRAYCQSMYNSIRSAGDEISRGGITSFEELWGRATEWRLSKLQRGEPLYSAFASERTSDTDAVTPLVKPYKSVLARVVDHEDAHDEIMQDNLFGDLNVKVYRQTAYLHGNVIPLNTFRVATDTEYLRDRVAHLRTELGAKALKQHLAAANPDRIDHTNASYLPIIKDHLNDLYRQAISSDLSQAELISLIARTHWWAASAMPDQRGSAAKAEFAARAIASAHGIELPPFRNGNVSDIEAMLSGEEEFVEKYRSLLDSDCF

T1 sequence (P13835 whole entry, the tested form may be a part): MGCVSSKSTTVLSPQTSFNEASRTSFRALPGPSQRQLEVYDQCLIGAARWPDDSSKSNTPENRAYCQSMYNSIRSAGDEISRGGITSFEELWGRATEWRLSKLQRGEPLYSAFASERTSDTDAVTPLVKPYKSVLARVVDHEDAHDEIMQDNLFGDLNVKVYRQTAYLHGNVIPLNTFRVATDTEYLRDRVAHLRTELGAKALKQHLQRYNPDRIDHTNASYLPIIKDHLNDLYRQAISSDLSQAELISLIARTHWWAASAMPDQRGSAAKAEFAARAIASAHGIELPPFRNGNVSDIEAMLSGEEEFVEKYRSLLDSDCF

B1: RIN4_(142–176) (peptide, UniProt Q8GYN5 142-176, looked up)
peptide: PEKVTVVPKFGDWDENNPSSADGYTHIFNKVREER
notes: the last four residues are printed as REER; residues 150-172 are modelled in the structure; also called RIN4 peptide
[1]
  Kd: 3 µM
[2]
  Kd: 9 µM
